Assay results: patent publication US20240091368A1 (Bicycle, published 2024)
Numbered stars: 1 amine (or outer) side, 2 acyl side, 3 side chain; on linkers, the order of the positions; unused ones are H or OH. Bridge positions count the residues as written; N and C are the ends. Square brackets hold non-standard residues; d marks the D form. Ends that are not written are not given here. * marks the point of attachment. TATA = O=C(CC[*:1])N1CN(C(=O)CC[*:2])CN(C(=O)CC[*:3])C1; hArg = N=C(N)NCCCC[C@H](N)C(=O)O; Agb = N=C(N)NCC[C@H](N)C(=O)O; Pent4ynoyl = C#CCCC(=O)*

B1: BCY17346 (peptide)
peptide: ACNAVLCSWARANSFCA
modifications: linker 2-7-16 via TATA; also: trimer: each monomer C-terminus attached to hinge B (PEG23)
B2: BCY17345 (peptide)
peptide: ACNAVLCSWARANSFCA
modifications: linker 2-7-16 via TATA; also: dimer: each monomer attached at C-terminus to central hinge A (PEG23)
B3: BCY19148 (peptide)
peptide: Ac-CNAVLCSWA[hArg]ANSFCK(Pent4ynoyl)
modifications: linker 1-6-15 via TATA; also: tetramer: each monomer attached at C-terminus to central hinge C (PEG23)
B4: BCY19147 (peptide)
peptide: Ac-CNAVLCSWA[hArg]ANSFCK(Pent4ynoyl)
modifications: linker 1-6-15 via TATA; also: trimer: each monomer attached at C-terminus to central hinge B (PEG23)
B5: BCY19071 (peptide)
peptide: Ac-CNSYTCYIKHILG[Agb]C
modifications: linker 1-6-15 via TATA; also: dimer: each monomer attached at C-terminus to central hinge A (PEG23)
B6: BCY17347 (peptide)
peptide: ACNAVLCSWARANSFCA
modifications: linker 2-7-16 via TATA; also: tetramer: each monomer attached at its C-terminus to central hinge moiety C (PEG23), further groups not given here

Molecular target: human ACE2 (angiotensin-converting enzyme 2) (human, UniProt Q9BYF1 18-805)
Sequence (Q9BYF1 18-805): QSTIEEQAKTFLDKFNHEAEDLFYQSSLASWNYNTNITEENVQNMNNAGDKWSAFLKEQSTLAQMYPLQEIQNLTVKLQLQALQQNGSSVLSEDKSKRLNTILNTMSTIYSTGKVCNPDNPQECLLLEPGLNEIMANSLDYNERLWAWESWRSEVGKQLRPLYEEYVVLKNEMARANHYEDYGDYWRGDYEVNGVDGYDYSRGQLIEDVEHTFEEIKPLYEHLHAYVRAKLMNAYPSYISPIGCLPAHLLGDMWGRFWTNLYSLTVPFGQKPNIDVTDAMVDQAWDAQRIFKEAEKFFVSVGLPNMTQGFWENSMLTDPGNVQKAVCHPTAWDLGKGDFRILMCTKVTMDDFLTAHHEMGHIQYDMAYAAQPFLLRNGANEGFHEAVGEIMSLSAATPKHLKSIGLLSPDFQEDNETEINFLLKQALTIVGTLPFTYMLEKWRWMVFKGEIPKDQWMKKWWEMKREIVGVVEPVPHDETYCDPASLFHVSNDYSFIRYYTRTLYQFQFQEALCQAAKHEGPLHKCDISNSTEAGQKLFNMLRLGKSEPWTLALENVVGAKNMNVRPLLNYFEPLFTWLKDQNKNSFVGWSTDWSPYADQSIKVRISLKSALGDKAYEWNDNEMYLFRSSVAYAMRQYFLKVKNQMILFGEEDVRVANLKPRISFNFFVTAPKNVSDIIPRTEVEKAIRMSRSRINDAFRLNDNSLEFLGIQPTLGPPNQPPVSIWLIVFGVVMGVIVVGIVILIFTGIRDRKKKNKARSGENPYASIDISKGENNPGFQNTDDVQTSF
Test: cell-based or functional assay

Binder | Pseudoviral Neutralisation Assay, Geomean IC50
ACNAVLCSWARANSFCA (linker 2-7-16 via TATA) [BCY15429] | 1280 nM
B1 | 12 nM
B2 | 6.96 nM
B3 | 10.1 nM
B4 | 17.7 nM
B5 | 24 nM
B6 | 3.75 nM
